Molecular target: Recombinant Human TNF-α/TNFSF1A (human, UniProt P01375 77-233)
Experiment: cell-based or functional assay

Recombinant Human TNF-α/TNFSF1A, sequence (P01375 77-233 limits assumed): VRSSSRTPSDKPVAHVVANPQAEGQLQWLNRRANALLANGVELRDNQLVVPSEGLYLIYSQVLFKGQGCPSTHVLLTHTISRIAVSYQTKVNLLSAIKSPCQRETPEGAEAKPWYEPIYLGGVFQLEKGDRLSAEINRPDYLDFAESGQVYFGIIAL

Row | Binder | N-Terminal VD huTNFα Neutralization Assay IC50 [pM] | C-Terminal VD huTNFα Neutralization Assay IC50 [pM]
1 | DVD3242 (bispecific antibody, IgG1) VH: EVQLVESGGGLVQPGGSLRLSCAASGFSFSKYWLGWVRQAPGKGLEWVSDIYPGYDYTHYNEKFKDRFTISADTSKNTAYLQMNSLRAEDTAVYYCARSDGSSTYWGQGTLVTVSSASTKGPSVFPLAPEVQLVQSGAEVKKPGASVKVSCKASGYTFNNYGIIWVRQAPGQGLEWMGWINTYTGKPTYAQKFQGRVTMTTDTSTSTAYMELSSLRSEDTAVYYCARKLFNTVAVTDNAMDYWGQGTTVTVSS VL: DIQMTQSPSSLSASVGDRVTITCTSSQNIVHSNGNTYLEWYQQKPGKAPKLLIYKVSNRFSGVPSRFSGSGSGTDFTLTISSLQPEDFATYYCFQVSHVPYTFGQGTKVEIKRTVAAPDIQMTQSPSSLSASVGDRVTITCRASQDIENYLNWYQQKPGKAPKLLIYYTSRLQSGVPSRFSGSGSGTDFTLTISSLQPEDFATYFCQQGNTQPPTFGQGTKLEIKR | – | 130
2 | DVD3263 (bispecific antibody, IgG1) VH: EVQLVESGGGLVQPGGSLRLSCAASGFTFSNYGVTWVRQAPGKGLEWVSMIWADGSTHYASSVKGRFTISRDNSKNTLYLQMNSLRAEDTAVYYCAREWQHGPVAYWGQGTLVTVSSGGGGSGGGGSEVQLQQSGPELVTPGASVKISCKASGYTFTKYWLGWVKQSHGKSLEWIGDIYPGYDYTHYNEKFKDTATLTVDKSSSIAYMEIRGLTSEDSAVYYCARSDGSSTYWGQGTLVTVSA VL: DIQMTQSPSSLSASVGDRVTITCRASQLVSSAVAWYQQKPGKAPKLLIYWASARHTGVPSRFSGSGSGTDFTLTISSLQPEDFATYYCQQHYKTPFTFGQGTKLEIKRGGSGGGGSGDVQMIQSPSSLSASLGDIVTMTCTSSQNIVHSNGNTYLEWFQQKPGKAPKLLIYKVSNRFSGVPSRFSGSRYGTDFTLTISSLEDEDLATYFCFQVSHVPYTFGGGTKLEIKR | 8 | –

Second part, the binder after the results:

Row | N-Terminal VD huTNFα Neutralization Assay IC50 [pM] | C-Terminal VD huTNFα Neutralization Assay IC50 [pM] | Binder
3 | 2 | – | DVD3267 (bispecific antibody, IgG1) VH: EVQLVESGGGLVQPGGSLRLSCAASGFSFSKYWLGWVRQAPGKGLEWVSDIYPGYDYTHYNEKFKDRFTISADTSKNTAYLQMNSLRAEDTAVYYCARSDGSSTYWGQGTLVTVSSASTKGPSVFPLAPEVQLQQSGPELVTPGASVKISCKASGYTFTKYWLGWVKQSHGKSLEWIGDIYPGYDYTHYNEKFKDTATLTVDKSSSIAYMEIRGLTSEDSAVYYCARSDGSSTYWGQGTLVTVSA VL: DIQMTQSPSSLSASVGDRVTITCTSSQNIVHSNGNTYLEWYQQKPGKAPKLLIYKVSNRFSGVPSRFSGSGSGTDFTLTISSLQPEDFATYYCFQVSHVPYTFGQGTKVEIKRTVAAPDVQMIQSPSSLSASLGDIVTMTCTSSQNIVHSNGNTYLEWFQQKPGKAPKLLIYKVSNRFSGVPSRFSGSRYGTDFTLTISSLEDEDLATYFCFQVSHVPYTFGGGTKLEIKR
4 | 6 | – | DVD3264 (bispecific antibody, IgG1) VH: EVQLVESGGGLVQPGGSLRLSCAASGFTFSNYGVTWVRQAPGKGLEWVSMIWADGSTHYASSVKGRFTISRDNSKNTLYLQMNSLRAEDTAVYYCAREWQHGPVAYWGQGTLVTVSSASTKGPEVQLQQSGPELVTPGASVKISCKASGYTFTKYWLGWVKQSHGKSLEWIGDIYPGYDYTHYNEKFKDTATLTVDKSSSIAYMEIRGLTSEDSAVYYCARSDGSSTYWGQGTLVTVSA VL: DIQMTQSPSSLSASVGDRVTITCRASQLVSSAVAWYQQKPGKAPKLLIYWASARHTGVPSRFSGSGSGTDFTLTISSLQPEDFATYYCQQHYKTPFTFGQGTKLEIKRTVAAPDVQMIQSPSSLSASLGDIVTMTCTSSQNIVHSNGNTYLEWFQQKPGKAPKLLIYKVSNRFSGVPSRFSGSRYGTDFTLTISSLEDEDLATYFCFQVSHVPYTFGGGTKLEIKR
